Source: patent US20060140934A1 (Amgen, published 2006)

T1: myostatin (UniProt O14793 267-375, limits assumed)
T1 sequence (looked up): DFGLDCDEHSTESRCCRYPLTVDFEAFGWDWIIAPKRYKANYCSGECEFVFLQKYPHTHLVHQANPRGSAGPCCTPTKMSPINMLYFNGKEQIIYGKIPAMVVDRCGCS

B1: Fc-loop TN8-19-07 (clone #6951) (Fc fusion)
chain: MDKTHTCPPCPAPELLGGPSVFLFPPKPKDTLMISRTPEVTCVVVDVSHEDPEVKFNWYVDGVEVHNAKTKPREEQYNSTYRVVSVLTVLHQDWLNGKEYKCKVSNKALPAPIEKTISKAKGQPREPQVYTLPPSRDELGGLADHGQCIRWPWMCPPEGWEGGTKNQVSLTCLVKGFYPSDIAVEWESNGQPENNYKTTPPVLDSDGSFFLYSKLTVDKSRWQQGNVFSCSVMHEALHNHYTQKSLSLSPGK
B2: Fc-Loop TN8-19-7 construct with insertion at Y77/N78 (CH2 domain) (Fc fusion, not shown: small tags and cut ends)
chain: MDKTHTCPPCPAPELLGGPSVFLFPPKPKDTLMISRTPEVTCVVVDVSHEDPEVKFNWYVDGVEVHNAKTKPREEQYLADHGQCIRWPWMCPPEGWENSTYRVVSVLTVLHQDWLNGKEYKCKVSNKALPAPIEKTISKAKGQPREPQVYTLPPSRDELTKNQVSLTCLVKGFYPSDIAVEWESNGQPENNYKTTPPVLDSDGSFFLYSKLTVDKSRWQQGNVFSCSVMHEALHNHYTQKSLSLSPGK
B3: Fc-Loop TN8-19-7 construct with insertion at L139/T140 and asymmetric Gly4/Gly6 linkers (CH3 domain) (Fc fusion)
chain: MDKTHTCPPCPAPELLGGPSVFLFPPKPKDTLMISRTPEVTCVVVDVSHEDPEVKFNWYVDGVEVHNAKTKPREEQYNSTYRVVSVLTVLHQDWLNGKEYKCKVSNKALPAPIEKTISKAKGQPREPQVYTLPPSRDELGGGGLADHGQCIRWPWMCPPEGWEGGGGGGTKNQVSLTCLVKGFYPSDIAVEWESNGQPENNYKTTPPVLDSDGSFFLYSKLTVDKSRWQQGNVFSCSVMHEALHNHYTQKSLSLSPGK
B4: Fc-Loop TN8-19-7 construct with insertion at H49/E50 (CH2 domain) (Fc fusion, not shown: small tags and cut ends)
chain: MDKTHTCPPCPAPELLGGPSVFLFPPKPKDTLMISRTPEVTCVVVDVSHLADHGQCIRWPWMCPPEGWEEDPEVKFNWYVDGVEVHNAKTKPREEQYNSTYRVVSVLTVLHQDWLNGKEYKCKVSNKALPAPIEKTISKAKGQPREPQVYTLPPSRDELTKNQVSLTCLVKGFYPSDIAVEWESNGQPENNYKTTPPVLDSDGSFFLYSKLTVDKSRWQQGNVFSCSVMHEALHNHYTQKSLSLSPGK

Columns and labels:
myostatin = target: T1, myostatin; test: cell-based or functional assay
FcRn = test: Biacore FcRn binding
FcRn, sequence (chain, as listed by the source, chain 1 of 2): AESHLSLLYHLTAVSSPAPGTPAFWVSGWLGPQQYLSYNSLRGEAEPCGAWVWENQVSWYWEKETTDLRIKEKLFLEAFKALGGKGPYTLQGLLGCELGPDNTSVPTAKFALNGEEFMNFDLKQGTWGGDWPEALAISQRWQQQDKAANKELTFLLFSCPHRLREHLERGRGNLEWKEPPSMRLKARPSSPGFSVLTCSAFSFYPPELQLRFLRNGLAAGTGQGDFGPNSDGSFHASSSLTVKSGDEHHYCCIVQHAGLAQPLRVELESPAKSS
FcRn, sequence (chain, as listed by the source, chain 2 of 2): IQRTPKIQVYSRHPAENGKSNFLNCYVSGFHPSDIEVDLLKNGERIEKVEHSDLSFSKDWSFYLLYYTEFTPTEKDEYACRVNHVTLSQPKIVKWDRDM

Binder	IC50(nM), in vitro cell based myostatin inhibition assay (luciferase reporter, C2C12 pMARE-luc) (myostatin) [nM]	EC50 (FcRn) [nM]
B1	0.834	–
B2	–	~680
B3	0.873	–
B4	–	~680
